Test results as given in article PMC10192129, “The thioesterase APT1 is a bidirectional-adjustment redox sensor” (Nature Communications, 2023).
Several values for one entry are separate records, joined by “and”; a condition that tells them apart may be missing. Equal entries are not always repeated.

Assays:
[1] = molecular target: the molecule itself; test: nonreducing SDS-PAGE with immunoblot; 6 × His-APT1 proteins after Ni purification from E. coli, no reducing agent; Tris-Tricine SDS-PAGE system
[2] = molecular target: the molecule itself; test: not stated; in vivo in M. truncatula under drought stress (Supplementary Fig. 2a)
[3] = molecular target: the molecule itself; test: nonreducing capillary electrophoresis immunoassay (Simple Jess) + other: nonreducing SDS-PAGE with immunoblot; root lysates of p35S:APT1-GFP/apt1 plants after 4 mM H2O2 for 15 min to 6 h (also 1 dpi with F. oxysporum); DTT-free buffers, samples not heated, anti-GFP

B1: 6 × His-APT1 fusion protein (acyl-protein thioesterase 1, Medicago truncatula) (enzyme)
chain: not shown
notes: acyl-protein thioesterase 1 (APT1, MtAPT1) of Medicago truncatula; cDNA amplified from ecotype A17; cysteines at C20, C22 and C37; The vector pET-30a(+) may add further vector-encoded residues (surmised); also called MtAPT1; pET-30a(+)-His-APT1
stoichiometry N [1]: 2 and 4

B2: APT1 in M. truncatula under drought stress (enzyme)
chain: not shown
notes: acyl-protein thioesterase 1 (APT1) of Medicago truncatula; May be the same APT1-GFP as m9 (surmised); source: in vivo in M. truncatula
stoichiometry N [2]: 4

B3: APT1-GFP fusion protein (p35S:APT1-GFP) in M. truncatula apt1 roots (enzyme)
chain: not shown
notes: acyl-protein thioesterase 1 (APT1) of Medicago truncatula, cDNA from ecotype A17; Detected with anti-GFP; source: transgenic M. truncatula apt1 mutant roots (p35S:APT1-GFP), in lysate
stoichiometry N [3]: 4
